Data reported in patent US20050153376A1 (AUCKLAND UNISERVICES, published 2005).
Where two headings read alike, the source gives them in different places.

B1: recombinant TSST (other)
chain: STNDNIKDLLDWYSSGSDTFTNSEVLDNSLGSMRIKNTDGSISLIIFPSPYYSPAFTKGEKVDLNTKRTKKSQHTSEGTYIHFQISGVTNTEKLPTPIELPLKVKVHGKDSPLKYGPKFDKKQLAISTLDFEIRHQLTQIHGLYRSSDKTGGYWKITMNDGSTYQSDLSKKFEYNTEKPPINIDEIKTIEAEIN
B2: recombinant SPE-G superantigen (mature) (other)
chain: DENLKDLKRSLRFAYNITPCDYENVEIAFVTTNSIHINTKQKRSECILYVDSIVSLGITDQFIKGDKVDVFGLPYNFSPPYVDNIYGGIVKHSNQGNKSLQFVGILNQDGKETYLPSEAVRIKKKQFTLQEFDFKIRKFLMEKYNIYDSESRYTSGSLFLATKDSKHYEVDLFNKDDKLLSRDSFFKRYKDNKIFNSEEISHFDIYLKTH
B3: recombinant SEA (other)
chain: SEKSEEINEKDLRKKSELQGTALGNLKQIYYYNEKAKTENKESHDQFLQHTILFKGFFTDHSWYNDLLVDFDSKDIVDKYKGKKVDLYGAYYGYQCAGGTPNKTACMYGGVTLHDNNRLTEEKKVPINLWLDGKQNTVPLETVKTNKKNVTVQELDLQARRYLQEKYNLYNSDVFDGKVQRGLIVFHTSTEPSVNYDLFGAQGQYSNTLLRIYRDNKTINSENMHIDIYLYTS
B4: recombinant SEB (other)
chain: ESQPDPKPDELHKSSKFTGLMENMKVLYDDNHVSAINVKSIDQFLYFDLIYSIKDTKLGNYDNVRVEFKNKDLADKYKDKYVDVFGANYYYQCYFSKKTNDINSHQTDKRKTCMYGGVTEHNGNQLDKYRSITVRVFEDGKNLLSFDVQTNKKKVTAQELDYLTRHYLVKNKKLYEFNNSPYETGYIKFIENENSFWYDMMPAPGDKFDQSKYLMMYNDNKMVDSKDVKIEVYLTTKKK

Tests used:
[1] = target: MHC class II (HLA-DR1) on human LG-2 cells (human); test: Scatchard analysis, 125I-labelled toxin on LG-2 cells
[2] = target: MHC class II (HLA-DR1) on human LG-2 cells (human)
[3] = target: MHC class II (HLA-DR1) on human LG-2 cells (human); test: Scatchard analysis, 125I-labelled toxin on LG-2 cells; low affinity site
[4] = target: MHC class II (HLA-DR1) on human LG-2 cells (human); test: Scatchard analysis, 125I-labelled toxin on LG-2 cells; high affinity site

Binder | Kd [1] [nM] | Kd [2] [nM] | Kd [3] [nM] | Kd [4] [nM]
B1 | 130 |  |  | 
B2 |  | 15 to 65 | 1000 | 16
B3 |  |  | 1000 | 36
B4 | 340 |  |  | 
